Test results from paper PMC6105678.

Tests used:
[1] = biological target: Bonsai gelsolin, fragment 28–161 of gelsolin (human); test: SAXS; 28–161 at 8 mg/ml, 1 mM EGTA, 30 °C
[2] = biological target: Bonsai gelsolin, fragment 28–161 of gelsolin (human); test: SAXS; 28–161 at 8 mg/ml, 1 mM EGTA, 40 °C
[3] = biological target: Bonsai gelsolin, fragment 28–161 of gelsolin (human); test: SAXS; 28–161 at 8 mg/ml, 1 mM free Ca2+, 40 °C
[4] = biological target: Bonsai gelsolin, fragment 28–161 of gelsolin (human); test: SEC; 8 mg/ml in EGTA buffer heated at 30 °C for 30 min, cooled to room temperature; 200 μl injected, column at room temperature

stoichiometry N [1]: 2
stoichiometry N [2]: 4
stoichiometry N [3]: 2
stoichiometry N [4]: 2
Substance: Bonsai gelsolin, fragment 28–161 of gelsolin (domain or fragment)
